Experimental data from article PMC10673952.

What was measured:
[1] = biological target: T1, FimA-FimAt (the two subunits of the ternary FimCAA complex) (E. coli) (UniProt P04128); assay: chaperone exchange kinetics followed by analytical cation exchange chromatography; 4 μM complex incubated with a 9-fold molar excess (36 μM) of the differently tagged FimC (untagged FimC against FimCHis complexes, FimCHis against FimCA and FimCAA); 20 mM MES-NaOH pH 6.0, 37 °C; single-exponential fit
T1 sequence (P04128 24-182, looked up): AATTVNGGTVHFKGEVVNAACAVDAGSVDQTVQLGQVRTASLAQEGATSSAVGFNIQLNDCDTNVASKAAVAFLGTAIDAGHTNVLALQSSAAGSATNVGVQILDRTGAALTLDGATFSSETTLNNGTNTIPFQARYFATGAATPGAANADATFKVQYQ

[2] = biological target: Fluorescein-labeled FimDN (E. coli); assay: stopped-flow fluorescence kinetics; fluorescein-labeled FimDN (0.4 μM) mixed with different concentrations of FimCI; 23 °C, 20 mM Tris-HCl pH 8.0; traces fitted globally to second-order binding and first-order dissociation
Chain of Fluorescein-labeled FimDN (E. coli) (P30130 46-170 limits assumed): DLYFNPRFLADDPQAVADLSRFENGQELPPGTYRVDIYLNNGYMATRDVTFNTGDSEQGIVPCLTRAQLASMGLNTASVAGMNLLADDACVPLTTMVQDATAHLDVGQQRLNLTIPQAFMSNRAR

Chain of FimC-FimI complex (FimCI) (P31697 37-241): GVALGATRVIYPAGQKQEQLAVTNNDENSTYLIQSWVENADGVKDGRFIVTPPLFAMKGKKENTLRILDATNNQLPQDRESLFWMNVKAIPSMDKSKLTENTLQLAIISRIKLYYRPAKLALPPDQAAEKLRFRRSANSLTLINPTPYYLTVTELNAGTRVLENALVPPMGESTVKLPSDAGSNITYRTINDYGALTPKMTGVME
Chain of FimC-FimI complex (FimCI) (P39264 20-179): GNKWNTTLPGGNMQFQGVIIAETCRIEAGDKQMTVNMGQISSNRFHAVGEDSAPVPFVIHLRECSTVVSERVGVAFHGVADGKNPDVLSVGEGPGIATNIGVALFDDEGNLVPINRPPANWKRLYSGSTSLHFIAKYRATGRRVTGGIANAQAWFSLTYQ
Chain of FimC (P31697 37-241): as the sequence (P31697 37-241) above

| Substance | dissociation half-life [1] | koff [2] | kon [2] |
| --- | --- | --- | --- |
| FimC (from UniProt P31697 37-241) (natural protein) | 17.7 min |  |  |
| FimC-FimI complex (FimCI) (from UniProt P31697 37-241; P39264 20-179) |  | 94 s⁻¹ | 1.45e+08 M⁻¹ s⁻¹ |
